This note sets out measurements from patent US20240124607A1 (Merck Sharp & Dohme, published 2024).

One test deals with T1, Human CEACAM5 (E398) (human, UniProt P06731 35-685, limits assumed).
T1 construct: also called hCEACAM5
T1 sequence: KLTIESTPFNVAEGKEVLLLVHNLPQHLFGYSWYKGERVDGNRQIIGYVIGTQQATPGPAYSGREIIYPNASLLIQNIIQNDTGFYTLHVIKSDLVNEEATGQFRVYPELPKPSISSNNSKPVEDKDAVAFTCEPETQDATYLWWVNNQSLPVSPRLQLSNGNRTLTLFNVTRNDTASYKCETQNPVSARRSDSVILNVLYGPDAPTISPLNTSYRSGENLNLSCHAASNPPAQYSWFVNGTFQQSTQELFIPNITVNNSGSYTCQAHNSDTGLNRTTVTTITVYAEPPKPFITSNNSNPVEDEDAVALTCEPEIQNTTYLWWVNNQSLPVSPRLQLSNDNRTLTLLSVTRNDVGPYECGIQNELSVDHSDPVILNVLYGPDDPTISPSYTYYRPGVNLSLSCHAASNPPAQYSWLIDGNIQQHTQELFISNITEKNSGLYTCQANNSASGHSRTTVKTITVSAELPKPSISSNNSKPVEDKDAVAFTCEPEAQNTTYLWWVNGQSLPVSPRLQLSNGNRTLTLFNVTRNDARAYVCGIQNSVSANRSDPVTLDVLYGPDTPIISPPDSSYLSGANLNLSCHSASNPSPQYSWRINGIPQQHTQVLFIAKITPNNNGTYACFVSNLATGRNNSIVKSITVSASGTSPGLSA
Description: SPR, anti-hFc capture, 37C, pH 6.0. The method, then: To determine the affinity and cross-reactivity of CEACAM5 TriNKET molecules, AB0411, AB0466, or AB0621 TriNKETs were captured using an anti-human Fc capture antibody (Cytiva, #BR100839) immobilized onto a Biacore CM5 standard surface sensor chip following manufacturer instructions. Human or cynomolgus CEACAM5 were titrated over captured AB0411, AB0466, and AB0621 as 2-fold serial dilutions starting from 300 nM. Association was monitored for 300 sec and dissociation was monitored for 600 sec. The assay was run at 37° C. at pH 7.4 and 6.0. The surface of the CM5 chip was regenerated with 10 mM glycine pH 1.5 for 20 sec at 100 μL/min.

The target of a further test is T2, CEACAM5 N-A1-B1-His (human, UniProt P06731 35-322, limits assumed).
T2 sequence: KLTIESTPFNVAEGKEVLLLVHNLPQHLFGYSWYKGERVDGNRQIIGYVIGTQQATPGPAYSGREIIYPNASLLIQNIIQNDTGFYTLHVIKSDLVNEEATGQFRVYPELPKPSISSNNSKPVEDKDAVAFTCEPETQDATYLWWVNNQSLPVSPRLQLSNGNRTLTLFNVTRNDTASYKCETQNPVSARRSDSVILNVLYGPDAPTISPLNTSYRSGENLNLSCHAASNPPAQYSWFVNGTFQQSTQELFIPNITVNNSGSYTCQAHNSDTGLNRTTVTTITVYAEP
The test can be described thus: SPR, hFc capt, 37C. The method, then:
(§1) The various hCEACAM5 protein domains were titrated over the captured antibody at 50 μL/min for 180 sec of association and 300 sec of dissociation. The assay was run at 37° C. in HBS-EP+ running buffer, pH 7.4. The surface of the CM5 chip was regenerated using 3M MgCl₂.
In general terms: SPR reads the build-up and loss of mass on a sensor chip optically.

A further test deals with T3, CEACAM5 Nterm IgV-His (human, UniProt P06731 35-144).
T3 construct: also called N-term domain of hCEACAM5
T3 sequence: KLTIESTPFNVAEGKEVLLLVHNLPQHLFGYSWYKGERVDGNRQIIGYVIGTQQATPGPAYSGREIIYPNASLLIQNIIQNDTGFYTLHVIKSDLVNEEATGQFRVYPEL
Description: SPR, hFc capt, 37C. The method, then: as §1

For test [1], the target named is T4, human CEACAM6 on Ba/F3 cells (human, UniProt P40199 35-320).
T4 construct: whole, on cells
T4 sequence (looked up): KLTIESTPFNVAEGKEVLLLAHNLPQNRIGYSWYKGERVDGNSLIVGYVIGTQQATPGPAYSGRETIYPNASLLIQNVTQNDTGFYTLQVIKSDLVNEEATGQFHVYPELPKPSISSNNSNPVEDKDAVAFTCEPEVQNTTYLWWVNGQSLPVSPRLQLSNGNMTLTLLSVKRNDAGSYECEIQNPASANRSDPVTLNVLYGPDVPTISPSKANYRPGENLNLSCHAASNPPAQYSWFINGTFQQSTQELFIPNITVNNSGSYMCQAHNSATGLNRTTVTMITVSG
The test can be described thus: flow cytometry on Ba/F3 cells expressing human CEACAM6, fold over background (FOB), 5-fold dilutions from 1600 nM. Here is the method: To examine the binding specificity of the TriNKETs to CEACAM5 compared to other CEACAM family members, Ba/F3 cells were engineered to express one of human CEACAM1, CEACAM6, CEACAM8, or cynomolgus CEACAM5. CEACAM5 TriNKETs were evaluated by flow cytometry starting at 1600 nM followed by 7 5-fold dilutions.
(In general: A flow cytometer gives signals particle by particle.)

For a further test, the target named is T5, Cyno FcγRIIIA (cynomolgus monkey, UniProt Q8SPW2 17-208, limits assumed, biotinylated).
T5 construct: also called cynomolgus CD16A
Description: SPR, biotin-CD16A on SA chip, 25C, pH 6.0. Here is the method:
(§2) Binding to human and cynomolgus CD16A was assessed using biotinylated CD16A captured on a streptavidin (SA) sensor chip (Cytiva, #BR100531). AB0411, AB0466, or AB0621 was titrated from 1500 nM at 25° C. at 30 μL/min for 150 sec association followed by 300 sec dissociation. The surface of the chip was regenerated with 2 mM sodium hydroxide for 5 sec at 30 μL/min. Running buffer was HBS-EP+. […] The V158 isoform bound ˜2- to 3-fold tighter than the F158 isoform as expected.

The target of test [2] is T6, human CD16A (FcγRIIIA) V158 (human, UniProt P08637 17-208, limits assumed, biotinylated in the assay of Table 21).
T6 construct: also called CD16A (V158/V176)
The test can be described thus: SPR, biotin-CD16A on SA chip, 25C, pH 6.0. The method, then: as §2

T5 sequence (Q8SPW2 17-208 limits assumed): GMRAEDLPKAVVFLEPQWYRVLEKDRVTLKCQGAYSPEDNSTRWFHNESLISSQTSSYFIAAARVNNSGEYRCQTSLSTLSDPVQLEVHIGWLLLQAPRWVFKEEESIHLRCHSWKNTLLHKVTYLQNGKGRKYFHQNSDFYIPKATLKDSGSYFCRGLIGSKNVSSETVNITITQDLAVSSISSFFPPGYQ
T6 sequence (P08637 17-208 F176V limits assumed): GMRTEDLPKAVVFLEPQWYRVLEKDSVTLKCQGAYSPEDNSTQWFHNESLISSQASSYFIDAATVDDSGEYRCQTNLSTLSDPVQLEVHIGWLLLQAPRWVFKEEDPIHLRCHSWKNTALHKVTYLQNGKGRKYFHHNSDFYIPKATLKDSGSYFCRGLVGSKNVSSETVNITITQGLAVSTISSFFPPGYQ

B1: AB0466 F3' CEACAM5 TriNKET (bispecific antibody, human IgG1, kappa)
chain: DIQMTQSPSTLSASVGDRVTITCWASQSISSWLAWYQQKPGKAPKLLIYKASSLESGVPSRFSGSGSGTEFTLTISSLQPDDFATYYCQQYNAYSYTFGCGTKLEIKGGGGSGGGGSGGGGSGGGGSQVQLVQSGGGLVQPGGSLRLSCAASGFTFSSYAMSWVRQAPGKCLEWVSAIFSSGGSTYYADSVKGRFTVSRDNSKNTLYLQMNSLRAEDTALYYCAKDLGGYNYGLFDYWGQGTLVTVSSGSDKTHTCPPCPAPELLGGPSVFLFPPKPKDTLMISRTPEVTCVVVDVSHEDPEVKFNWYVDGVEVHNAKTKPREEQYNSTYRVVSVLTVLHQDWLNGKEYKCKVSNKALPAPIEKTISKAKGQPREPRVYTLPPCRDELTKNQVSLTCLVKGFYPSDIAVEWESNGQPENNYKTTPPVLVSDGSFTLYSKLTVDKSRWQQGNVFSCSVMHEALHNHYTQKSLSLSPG
heavy: EVQLVESGGGLVKPGGSLRLSCAASGFTFSSYSMNWVRQAPGKGLEWVSSISSSSSYIYYADSVKGRFTISRDNAKNSLYLQMNSLRAEDTAVYYCARGAPIGAAAGWFDPWGQGTLVTVSSASTKGPSVFPLAPSSKSTSGGTAALGCLVKDYFPEPVTVSWNSGALTSGVHTFPAVLQSSGLYSLSSVVTVPSSSLGTQTYICNVNHKPSNTKVDKKVEPKSCDKTHTCPPCPAPELLGGPSVFLFPPKPKDTLMISRTPEVTCVVVDVSHEDPEVKFNWYVDGVEVHNAKTKPREEQYNSTYRVVSVLTVLHQDWLNGKEYKCKVSNKALPAPIEKTISKAKGQPREPQVCTLPPSRDELTENQVSLTCLVKGFYPSDIAVEWESNGQPENNYKTTPPVLDSDGSFFLYSWLTVDKSRWQQGNVFSCSVMHEALHNHYTQKSLSLSPG
light: DIQMTQSPSSVSASVGDRVTITCRASQGISSWLAWYQQKPGKAPKLLIYAASSLQSGVPSRFSGSGSGTDFTLTISSLQPEDFATYYCQQGVSFPRTFGGGTKVEIKRTVAAPSVFIFPPSDEQLKSGTASVVCLLNNFYPREAKVQWKVDNALQSGNSQESVTEQDSKDSTYSLSSTLTLSKADYEKHKVYACEVTHQGLSSPVTKSFNRGEC
For the molecule B1, the Kd (in general, the constant that tells how readily two partners part at equilibrium) was 15 nM with Human CEACAM5 (E398); 5.5 nM with CEACAM5 N-A1-B1-His; 1.4 nM with CEACAM5 Nterm IgV-His; 19 nM in the test with Cyno FcγRIIIA; 47 nM in test [2]. Moreover, the association rate constant (kon) (usually the rate constant with which the complex forms) with Human CEACAM5 (E398) was determined as 160000 M⁻¹ s⁻¹; with CEACAM5 N-A1-B1-His it was 240000 M⁻¹ s⁻¹; in the test with CEACAM5 Nterm IgV-His, 1.1e+06 M⁻¹ s⁻¹; with Cyno FcγRIIIA, 2.4e+06 M⁻¹ s⁻¹; in test [2], 820000 M⁻¹ s⁻¹. In test [1], the binding result is “no binding (tested: 1600 nM)”. For the same molecule, the koff (usually the first-order rate constant of dissociation) with Cyno FcγRIIIA was determined as 0.047 s⁻¹; in test [2], 0.038 s⁻¹.

B2: AB0411 F3' CEACAM5 TriNKET (bispecific antibody, human IgG1, kappa)
chain: DIQLTQSPATLSVSPGERATLSCRASQSVSSSYLAWYQQKPGQAPRLLIYGASSRATGIPDRFSGSGSGTDFTLTISRLEPEDFAVYYCQQYNNWPLTFGCGTKVEIKGGGGSGGGGSGGGGSGGGGSQVQLVQSGGGLVQPGGSLRLSCAASGFTFTSYAMSWVRQAPGKCLEWVSAISGTGDSTFYADSVKGRFTFSRDNSKNTLYLQMNSLRAEDTAVYYCAKDLGWLQYGLFDYWGQGTLVTVSSGSDKTHTCPPCPAPELLGGPSVFLFPPKPKDTLMISRTPEVTCVVVDVSHEDPEVKFNWYVDGVEVHNAKTKPREEQYNSTYRVVSVLTVLHQDWLNGKEYKCKVSNKALPAPIEKTISKAKGQPREPRVYTLPPCRDELTKNQVSLTCLVKGFYPSDIAVEWESNGQPENNYKTTPPVLVSDGSFTLYSKLTVDKSRWQQGNVFSCSVMHEALHNHYTQKSLSLSPG
heavy: EVQLVESGGGLVKPGGSLRLSCAASGFTFSSYSMNWVRQAPGKGLEWVSSISSSSSYIYYADSVKGRFTISRDNAKNSLYLQMNSLRAEDTAVYYCARGAPIGAAAGWFDPWGQGTLVTVSSASTKGPSVFPLAPSSKSTSGGTAALGCLVKDYFPEPVTVSWNSGALTSGVHTFPAVLQSSGLYSLSSVVTVPSSSLGTQTYICNVNHKPSNTKVDKKVEPKSCDKTHTCPPCPAPELLGGPSVFLFPPKPKDTLMISRTPEVTCVVVDVSHEDPEVKFNWYVDGVEVHNAKTKPREEQYNSTYRVVSVLTVLHQDWLNGKEYKCKVSNKALPAPIEKTISKAKGQPREPQVCTLPPSRDELTENQVSLTCLVKGFYPSDIAVEWESNGQPENNYKTTPPVLDSDGSFFLYSWLTVDKSRWQQGNVFSCSVMHEALHNHYTQKSLSLSPG
light: DIQMTQSPSSVSASVGDRVTITCRASQGISSWLAWYQQKPGKAPKLLIYAASSLQSGVPSRFSGSGSGTDFTLTISSLQPEDFATYYCQQGVSFPRTFGGGTKVEIKRTVAAPSVFIFPPSDEQLKSGTASVVCLLNNFYPREAKVQWKVDNALQSGNSQESVTEQDSKDSTYSLSSTLTLSKADYEKHKVYACEVTHQGLSSPVTKSFNRGEC
B2: the Kd is 1.9 nM with Human CEACAM5 (E398); 1.2 nM in the test with CEACAM5 N-A1-B1-His; 0.31 nM in the test with CEACAM5 Nterm IgV-His; 16 nM with Cyno FcγRIIIA; 36 nM in test [2]. Further, the on-rate constant (kon) was found to be 310000 M⁻¹ s⁻¹ with Human CEACAM5 (E398), 360000 M⁻¹ s⁻¹ with CEACAM5 N-A1-B1-His, 1.4e+06 M⁻¹ s⁻¹ with CEACAM5 Nterm IgV-His and 830000 M⁻¹ s⁻¹ in test [2]. In addition, the off-rate constant (koff) in test [2] amounted to 0.029 s⁻¹.

B3: AB0264 F3' CEACAM5 TriNKET (bispecific antibody, human IgG1, kappa)
chain: DIVMTQSPDSLAVSLGERATINCKSSHSLLYGNFQNNYLAWYQQKPGQPPKLLIYWASTRESGVPDRFSGSGSGTDFTLTISSLQAEDVAVYYCQQYYSYPYTFGCGTKLEIKGGGGSGGGGSGGGGSGGGGSQVQLVQSGAEVKKPGASVKVSCKASGYTFTAYTIHWVRQAPGQCLEWMGYINPSSGYTEYNQKFKDRTTLTADTSIPTAYMELSRLRSDDTAVYYCTREGGLLWFDYWGQGTLVTVSSGSDKTHTCPPCPAPELLGGPSVFLFPPKPKDTLMISRTPEVTCVVVDVSHEDPEVKFNWYVDGVEVHNAKTKPREEQYNSTYRVVSVLTVLHQDWLNGKEYKCKVSNKALPAPIEKTISKAKGQPREPRVYTLPPCRDELTKNQVSLTCLVKGFYPSDIAVEWESNGQPENNYKTTPPVLVSDGSFTLYSKLTVDKSRWQQGNVFSCSVMHEALHNHYTQKSLSLSPG
heavy: EVQLVESGGGLVKPGGSLRLSCAASGFTFSSYSMNWVRQAPGKGLEWVSSISSSSSYIYYADSVKGRFTISRDNAKNSLYLQMNSLRAEDTAVYYCARGAPIGAAAGWFDPWGQGTLVTVSSASTKGPSVFPLAPSSKSTSGGTAALGCLVKDYFPEPVTVSWNSGALTSGVHTFPAVLQSSGLYSLSSVVTVPSSSLGTQTYICNVNHKPSNTKVDKKVEPKSCDKTHTCPPCPAPELLGGPSVFLFPPKPKDTLMISRTPEVTCVVVDVSHEDPEVKFNWYVDGVEVHNAKTKPREEQYNSTYRVVSVLTVLHQDWLNGKEYKCKVSNKALPAPIEKTISKAKGQPREPQVCTLPPSRDELTENQVSLTCLVKGFYPSDIAVEWESNGQPENNYKTTPPVLDSDGSFFLYSWLTVDKSRWQQGNVFSCSVMHEALHNHYTQKSLSLSPG
light: DIQMTQSPSSVSASVGDRVTITCRASQGISSWLAWYQQKPGKAPKLLIYAASSLQSGVPSRFSGSGSGTDFTLTISSLQPEDFATYYCQQGVSFPRTFGGGTKVEIKRTVAAPSVFIFPPSDEQLKSGTASVVCLLNNFYPREAKVQWKVDNALQSGNSQESVTEQDSKDSTYSLSSTLTLSKADYEKHKVYACEVTHQGLSSPVTKSFNRGEC
As to B3, in test [1], the binding result is “no binding (tested: 1600 nM)”.
